Measurements: PMC6778109

Target: Edc3 IDR
Assay: methyl TROSY NMR titration

other: chemical shift perturbation Δδ of the introduced methyl group (+ 6x Edc3 IDR) [ppm]	other: chemical shift perturbation Δδ of the introduced methyl group (+ 4x Edc3 IDR) [ppm]	Substance
0.078		Edc3 YjeF_N domain (from UniProt O94752) Q447I
	0.391	Edc3 YjeF_N domain (from UniProt O94752) V253I
	0.104	Edc3 YjeF_N domain (from UniProt O94752) W393M
0.087		Edc3 YjeF_N domain (from UniProt O94752) K392M
